Measurements reported in PMC9405658.

Target: YadA (Yersinia adhesin A) displayed on E. coli BL21 DE3 cells (Yersinia enterocolitica) (UniProt P0C2W0)
Experiment: fluorescence cell-binding assay (eluted FAM-aptamer)
Settings: 1.4 mM Mg2+; whole cells; authors say true Kd for pure YadA is probably higher; Kd: PBS 1x pH 7.4 (137 mM NaCl, 2.7 mM KCl, 8 mM Na2HPO4, 2 mM KH2PO4) + 1.4 mM MgCl2, 37 C, 75 min, 0-100 nM aptamer; sensor: inactivated cells in PBS 1x pH 7.

Sequence of UniProt P0C2W0 (P0C2W0 whole entry): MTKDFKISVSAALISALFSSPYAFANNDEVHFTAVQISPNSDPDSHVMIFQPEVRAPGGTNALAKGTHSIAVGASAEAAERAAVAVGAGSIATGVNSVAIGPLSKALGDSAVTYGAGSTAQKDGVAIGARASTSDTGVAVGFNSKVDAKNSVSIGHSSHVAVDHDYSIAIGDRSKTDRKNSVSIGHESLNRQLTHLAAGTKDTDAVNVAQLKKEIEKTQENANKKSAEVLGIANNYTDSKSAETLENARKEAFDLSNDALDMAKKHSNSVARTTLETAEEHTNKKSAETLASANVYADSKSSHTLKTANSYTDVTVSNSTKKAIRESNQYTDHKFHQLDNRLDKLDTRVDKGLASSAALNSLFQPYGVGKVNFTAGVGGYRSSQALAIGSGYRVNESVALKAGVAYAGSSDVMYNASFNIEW

ATCCAGAGTGACGCAGCATGACAGACGGGAGAGACACGACGGGGGCGGGGAGTGAGAAGCGCGCGCTGAATGTCGTTGGTGGCCC [Apt1 (FAM)]
Kd: 11 nM
